In paper PMC3217859, “Protein phosphatase 2a (PP2A) binds within the oligomerization domain of striatin and regulates the phosphorylation and activation of the mammalian Ste20-Like kinase Mst3” (BMC Biochemistry, 2011):

Columns and labels:
Assay in all cases: co-IP; anti-HA immunoprecipitates (12CA5 with protein A-Sepharose, or F7 anti-HA-agarose when probing for Mst3 or Mst4; 1.5 h, 4°C) of lysates (1% Nonidet P-40, 0.135 M NaCl, 10% glycerol, 20 mM Tris pH 8.0) of HEK293 cells transfected with HA-striatins; endogenous partners by immunoblot, partner/HA-striatin ratio by chemilumimager against wild type; 50 mM NaF and 100 nM okadaic acid in the lysis buffer in the …
Details in all cases: partners not purified
[1] = target: T1, HA-tagged Δ(148-166) striatin (human, UniProt O43815 1-780, Δ(148-166))
T1 construct: source: HEK293, transfected, in lysate; not shown: HA, N-terminal, kept
T1 sequence (looked up): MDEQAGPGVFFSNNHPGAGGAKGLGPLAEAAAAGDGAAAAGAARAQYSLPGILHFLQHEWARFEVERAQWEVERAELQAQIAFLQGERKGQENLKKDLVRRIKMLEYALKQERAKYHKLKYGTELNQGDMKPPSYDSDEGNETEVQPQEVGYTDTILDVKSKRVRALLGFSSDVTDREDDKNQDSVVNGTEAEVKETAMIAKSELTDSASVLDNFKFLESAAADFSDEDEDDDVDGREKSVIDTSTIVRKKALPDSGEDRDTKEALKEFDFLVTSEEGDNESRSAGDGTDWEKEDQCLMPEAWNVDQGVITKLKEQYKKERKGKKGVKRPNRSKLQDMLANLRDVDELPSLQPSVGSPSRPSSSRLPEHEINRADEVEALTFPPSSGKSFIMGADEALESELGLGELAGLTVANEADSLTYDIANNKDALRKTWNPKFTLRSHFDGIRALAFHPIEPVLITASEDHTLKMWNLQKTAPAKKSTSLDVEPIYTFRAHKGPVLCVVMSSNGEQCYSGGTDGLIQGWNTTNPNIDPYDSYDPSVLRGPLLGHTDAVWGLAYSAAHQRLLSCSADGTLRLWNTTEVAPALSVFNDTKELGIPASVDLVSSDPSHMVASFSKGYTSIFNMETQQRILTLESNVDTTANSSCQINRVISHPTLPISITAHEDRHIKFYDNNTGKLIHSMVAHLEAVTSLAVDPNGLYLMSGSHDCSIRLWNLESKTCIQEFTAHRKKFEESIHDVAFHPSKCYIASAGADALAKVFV

[2] = target: T2, HA-tagged striatin with deletion of residues 191-269 (human, UniProt O43815 1-780, deletion of residues 191-269)
T2 construct: source: HEK293 or HEK293 stably expressing FLAG-CCM3, transfected, in lysate; not shown: HA, N-terminal, kept
T2 sequence (looked up): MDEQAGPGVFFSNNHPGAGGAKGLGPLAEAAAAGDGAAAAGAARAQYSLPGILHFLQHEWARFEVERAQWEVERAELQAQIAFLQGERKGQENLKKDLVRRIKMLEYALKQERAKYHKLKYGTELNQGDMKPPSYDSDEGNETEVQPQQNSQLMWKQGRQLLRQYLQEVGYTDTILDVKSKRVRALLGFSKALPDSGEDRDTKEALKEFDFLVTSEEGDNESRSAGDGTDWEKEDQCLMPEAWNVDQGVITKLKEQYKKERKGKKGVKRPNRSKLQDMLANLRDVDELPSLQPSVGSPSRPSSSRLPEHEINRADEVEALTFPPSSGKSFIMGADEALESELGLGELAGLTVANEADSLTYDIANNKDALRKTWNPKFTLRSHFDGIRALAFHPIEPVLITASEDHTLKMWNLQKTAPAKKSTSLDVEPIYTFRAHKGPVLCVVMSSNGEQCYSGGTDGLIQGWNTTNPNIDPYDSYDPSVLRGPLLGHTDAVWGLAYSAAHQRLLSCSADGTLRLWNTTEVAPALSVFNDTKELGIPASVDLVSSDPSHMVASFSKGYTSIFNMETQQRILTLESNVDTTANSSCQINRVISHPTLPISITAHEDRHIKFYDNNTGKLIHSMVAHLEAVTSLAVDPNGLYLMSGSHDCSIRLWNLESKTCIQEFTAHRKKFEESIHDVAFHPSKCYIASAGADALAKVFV

[3] = target: T3, HA-tagged R100S/R101E striatin (human, UniProt O43815 1-780, R100S | R101E)
T3 construct: striatin, human, double point mutant in the coiled-coil domain; source: HEK293, transfected, in lysate; not shown: HA, N-terminal, kept
T3 sequence (looked up): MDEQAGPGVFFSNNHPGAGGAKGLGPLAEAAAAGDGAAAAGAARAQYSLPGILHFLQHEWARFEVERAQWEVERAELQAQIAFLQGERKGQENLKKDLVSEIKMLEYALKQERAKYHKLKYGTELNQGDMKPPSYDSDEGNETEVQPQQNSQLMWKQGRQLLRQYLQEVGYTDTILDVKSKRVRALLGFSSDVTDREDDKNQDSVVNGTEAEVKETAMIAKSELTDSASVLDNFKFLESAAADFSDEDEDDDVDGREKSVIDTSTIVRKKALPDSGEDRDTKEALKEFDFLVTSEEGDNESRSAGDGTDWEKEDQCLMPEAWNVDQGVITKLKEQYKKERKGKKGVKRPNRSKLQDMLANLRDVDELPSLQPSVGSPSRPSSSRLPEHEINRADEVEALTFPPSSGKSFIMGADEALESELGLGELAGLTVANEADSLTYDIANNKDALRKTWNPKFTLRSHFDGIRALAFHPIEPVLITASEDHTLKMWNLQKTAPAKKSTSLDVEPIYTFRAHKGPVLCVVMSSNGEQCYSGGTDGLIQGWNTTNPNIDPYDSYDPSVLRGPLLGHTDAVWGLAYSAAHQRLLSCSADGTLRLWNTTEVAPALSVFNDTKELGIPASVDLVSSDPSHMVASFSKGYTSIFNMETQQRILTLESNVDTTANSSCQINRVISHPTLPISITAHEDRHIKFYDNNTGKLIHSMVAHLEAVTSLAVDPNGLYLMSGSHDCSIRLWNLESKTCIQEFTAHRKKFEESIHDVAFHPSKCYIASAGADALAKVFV

[4] = target: T4, HA-tagged Δ(227-309) striatin (human, UniProt O43815 1-780, Δ(227-309))
T4 construct: source: HEK293, transfected, in lysate; not shown: HA, N-terminal, kept
T4 sequence (looked up): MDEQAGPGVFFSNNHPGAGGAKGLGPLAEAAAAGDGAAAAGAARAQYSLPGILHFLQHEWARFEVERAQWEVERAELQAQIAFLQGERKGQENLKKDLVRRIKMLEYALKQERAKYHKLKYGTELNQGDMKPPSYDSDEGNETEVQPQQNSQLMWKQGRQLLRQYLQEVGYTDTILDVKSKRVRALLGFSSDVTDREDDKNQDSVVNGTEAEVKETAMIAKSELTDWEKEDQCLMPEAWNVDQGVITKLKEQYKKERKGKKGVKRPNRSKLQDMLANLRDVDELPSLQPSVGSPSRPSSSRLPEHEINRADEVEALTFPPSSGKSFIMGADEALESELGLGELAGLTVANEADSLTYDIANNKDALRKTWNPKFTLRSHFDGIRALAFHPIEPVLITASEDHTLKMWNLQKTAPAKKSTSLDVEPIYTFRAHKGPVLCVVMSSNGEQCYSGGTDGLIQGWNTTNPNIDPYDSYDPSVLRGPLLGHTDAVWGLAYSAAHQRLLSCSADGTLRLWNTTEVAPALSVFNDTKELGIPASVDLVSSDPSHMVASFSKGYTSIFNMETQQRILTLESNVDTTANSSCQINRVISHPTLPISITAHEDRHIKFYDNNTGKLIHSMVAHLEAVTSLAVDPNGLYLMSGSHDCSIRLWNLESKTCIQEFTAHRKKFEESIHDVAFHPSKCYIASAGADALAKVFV

[5] = target: T5, HA-tagged Δ(270-344) striatin (human, UniProt O43815 1-780, Δ(270-344))
T5 construct: source: HEK293 or HEK293 stably expressing FLAG-CCM3, transfected, in lysate; not shown: HA, N-terminal, kept
T5 sequence (looked up): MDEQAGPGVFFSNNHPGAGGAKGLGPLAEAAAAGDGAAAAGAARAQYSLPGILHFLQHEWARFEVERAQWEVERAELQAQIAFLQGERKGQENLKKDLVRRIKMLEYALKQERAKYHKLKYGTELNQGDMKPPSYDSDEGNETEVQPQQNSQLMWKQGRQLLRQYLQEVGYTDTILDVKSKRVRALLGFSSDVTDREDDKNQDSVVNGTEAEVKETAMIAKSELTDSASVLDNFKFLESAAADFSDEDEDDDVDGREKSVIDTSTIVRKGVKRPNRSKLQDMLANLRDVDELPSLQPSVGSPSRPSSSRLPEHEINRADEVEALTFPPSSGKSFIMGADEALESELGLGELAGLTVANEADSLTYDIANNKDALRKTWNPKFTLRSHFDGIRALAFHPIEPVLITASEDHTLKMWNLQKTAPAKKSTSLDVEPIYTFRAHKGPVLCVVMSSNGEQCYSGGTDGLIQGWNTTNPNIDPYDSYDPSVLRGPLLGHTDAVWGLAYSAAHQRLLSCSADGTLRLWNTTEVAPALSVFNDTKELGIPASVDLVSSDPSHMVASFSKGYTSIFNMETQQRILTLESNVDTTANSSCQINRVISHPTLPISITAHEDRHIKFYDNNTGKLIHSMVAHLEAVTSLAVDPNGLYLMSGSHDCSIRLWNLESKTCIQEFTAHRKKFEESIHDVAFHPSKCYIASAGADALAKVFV

Sequence of Mst4 kinase (Q9P289 whole entry): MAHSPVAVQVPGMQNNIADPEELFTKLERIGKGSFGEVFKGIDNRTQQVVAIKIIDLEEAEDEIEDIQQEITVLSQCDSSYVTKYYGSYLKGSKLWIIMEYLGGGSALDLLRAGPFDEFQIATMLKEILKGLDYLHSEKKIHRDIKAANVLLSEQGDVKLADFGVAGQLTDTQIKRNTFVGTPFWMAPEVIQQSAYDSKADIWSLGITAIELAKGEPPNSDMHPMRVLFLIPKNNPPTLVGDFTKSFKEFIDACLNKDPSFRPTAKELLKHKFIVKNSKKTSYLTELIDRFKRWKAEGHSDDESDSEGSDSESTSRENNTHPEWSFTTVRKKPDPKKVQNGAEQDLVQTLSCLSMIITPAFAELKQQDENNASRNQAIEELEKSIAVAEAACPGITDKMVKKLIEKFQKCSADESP

| Binder | fold binding against wild-type striatin [1] | percent reduction in binding against wild-type striatin [2] | percent of the wild-type level bound [3] | percent reduction in binding against wild-type striatin [4] | percent reduction in binding against wild-type striatin [5] |
| --- | --- | --- | --- | --- | --- |
| mammalian Ste20-like kinase Mst3 (enzyme, Mst3 kinase, endogenous in HEK293 cells; Runs as a lower and an upper (hyperphosphorylated) band; both are found with striatin; source: endogenous, HEK293 lysate) not shown | ~3.5 fold | ~33% |  |  |  |
| S/G2 nuclear autoantigen (SG2NA) (natural protein, human (endogenous in HEK293), UniProt Q13033 1-797, looked up, SG2NA, striatin family member, endogenous in HEK293 cells; source: endogenous, HEK293 lysate) MDELAGGGGGGPGMAAPPRQQQGPGGNLGLSPGGNGAAGGGGPPASEGAGPAAGPELSRPQQYTIPGILHYIQHEWARFEMERAHWEVERAELQARIAFLQGERKGQENLKKDLVRRIKMLEYALKQERAKYHKLKYGTELNQGDLKMPTFESEETKDTEAPTAPQNSQLTWKQGRQLLRQYLQEVGYTDTILDVRSQRVRSLLGLSNSEPNGSVETKNLEQILNGGESPKQKGQEIKRSSGDVLETFNFLENADDSDEDEENDMIEGIPEGKDKHRMNKHKIGNEGLAADLTDDPDTEEALKEFDFLVTAEDGEGAGEARSSGDGTEWDKDDLSPTAEVWDVDQGLISKLKEQYKKERKGKKGVKRANRTKLYDMIADLGDDELPHIPSGIINQSRSASTRMTDHEGARAEEAEPITFPSGGGKSFIMGSDDVLLSVLGLGDLADLTVTNDADYSYDLPANKDAFRKTWNPKYTLRSHFDGVRALAFHPVEPVLVTASEDHTLKLWNLQKTVPAKKSASLDVEPIYTFRAHIGPVLSLAISSNGEQCFSGGIDATIQWWNMPSPSVDPYDTYEPNVLAGTLVGHTDAVWGLAYSGIKNQLLSCSADGTVRLWNPQEKLPCICTYNGDKKHGIPTSVDFIGCDPAHMVTSFNTGSAVIYDLETSQSLVILSSQVDSGLQSNNHINRVVSHPTLPVTITAHEDRHIKFFDNKTGKMIHSMVAHLDAVTSLAVDPNGIYLMSGSHDCSIRLWNLDSKTCVQEITAHRKKLDESIYDVAFHSSKAYIASAGADALAKVFV |  |  | 81 % of wild-type level |  |  |
| Mst4 kinase (enzyme, Mst4 kinase, endogenous in HEK293 cells; source: endogenous, HEK293 lysate) not shown | ~4 fold | 33% |  | 38% | 75% |
